Assay results taken from patent US20260263554A1, “COMPOSITION COMPRISING CPNE7 PROTEIN OR CPNE7 PROTEIN-DERIVED PEPTIDE FOR REMOVING REACTIVE OXYGEN SPECIES IN CELLS” (HYSENSBIO CO., LTD, priority 2022, published 2026).

How the values were obtained:
[1] = test system: Human dental pulp cells (hDPCs); experiment: Optical microscope observation of hDPCs after H2O2 and test substance; assay type: cell-based; conditions: H2O2 5 uM, 100 uM, 1 mM or 2 mM, 100 ng/ml recombinant CPNE7 protein, 24 hours, compared to control without rCPNE7
Experimental: Human dental pulp cells (hDPCs) were cultured in an α-MEM medium containing 10% FBS under 37° C. and 5% CO2 conditions.
hDPCs were seeded into 35 mm culture dishes at a density of 1×10^5 cells, cultured for 24 hours, treated with H2O2 at a concentration of 5 uM, 100 uM, 1 mM, or 2 mM, respectively, and then treated with 100 ng/ml of a recombinant CPNE7 protein and cultured for 24 hours. After the culture was completed, the cultured cells were washed with PBS, and observed using an optical microscope. At this time, the hDPCs cultured without treating the recombinant CPNE7 protein (rCPNE7) were used as the control.
Cultured hDPC cells were seeded into 6-well plates at a density of 1×10^5 cells per well, cultured for 24 hours, and then treated with 1 mM hydrogen peroxide (H2O2) and treated with Selcopintide at concentrations of 1 μg/mL, 10 μg/mL, 100 μg/mL, and 500 μg/mL for 24 hours. Untreated hDPCs were used as the control.

hDPCs [2] = experiment: Immunofluorescence staining with γ-H2A.X (DNA damage marker); assay type: cell-based, human; conditions: 1 mM H2O2, 100 ng/mL CPNE7 recombinant protein, 24 hours, vs 1 mM H2O2 group
Experimental: Cultured hDPCs were seeded into 35 mm culture dishes for a confocal microscope at a density of 1×10^5 cells, cultured for 24 hours, and then treated with 1 mM H2O2 and treated with 100 ng/mL of rCPNE7. After 24 hours, the cells were fixed with 4% paraformaldehyde.
Immunofluorescence staining using a γ-H2A.X antibody was performed on the fixed cells to compare intensity.
Cultured hDPCs were seeded into 35 mm culture dishes for a confocal microscope at a density of 1×10^5 cells, cultured for 24 hours, and then treated with 1 mM H2O2 and treated with 10 μg/mL of Selcopintide. After 24 hours, the cells were fixed with 4% paraformaldehyde.

hDPCs [3] = experiment: Reactive oxygen species level with DCFDA, confocal microscope; assay type: cell-based, human; conditions: 1 mM H2O2, 100 ng/mL rCPNE7, imaged for approximately one hour
Experimental: Cultured hDPCs were seeded into 35 mm culture dishes for a confocal microscope at a density of 1×10^5 cells, cultured for 24 hours, and then treated with 1 mM H2O2 and treated with 100 ng/mL of rCPNE7. Then, images were taken for approximately one hour using a confocal microscope.
Cultured hDPCs were seeded into 35 mm culture dishes for a confocal microscope at a density of 1×10^5 cells, cultured for 24 hours, and then treated with 1 mM H2O2 and treated with 10 μg/mL of Selcopintide. Thereafter, images were taken for approximately one hour using a confocal microscope.

[4] = test system: endogenous antioxidant enzymes in hDPC cells; experiment: mRNA levels of endogenous antioxidant enzymes by RT-PCR; assay type: cell-based, human; conditions: hDPCs, 1 mM H2O2, CPNE7 recombinant protein 100 ng/mL or Selcopintide 10 ug/mL
Experimental: Cultured hDPCs were seeded into 60 mm culture dishes at a density of 4×10^5 cells, cultured for 24 hours, and then treated with 1 mM H2O2 and treated with the CPNE7 recombinant protein (100 ng/mL) and Selcopintide (10 ug/mL). After 30 minutes and one hour, the mRNA levels of Sod1, 2, and 3, catalase, Gpx7, Hmox1, and Txmd1 were checked.

hDPCs [5] = experiment: Beta-galactosidase (B-gal) staining, cell aging; assay type: cell-based, human; conditions: 1 mM H2O2, 100 ng/mL rCPNE7, 12 or 24 hours, compared to H2O2-only-treated group
Experimental: For this purpose, cultured hDPCs were seeded into 6-well plates at a density of 1×10^5 cells, cultured for 24 hours, and then treated with 1 mM H2O2 and treated with 100 ng/mL of rCPNE7. After 12 or 24 hours, the cells were fixed with 4% paraformaldehyde.
Next, B-gal staining was performed on the fixed cells for 24 hours to compare the degree of cell aging.

B1: CPNE7 recombinant protein: recombinant Copine-7 (CPNE7) protein (protein, UniProt Q9UBL6 1-633, looked up)
Copine-7: MSAGSERGAAATPGGLPAPCASKVELRLSCRHLLDRDPLTKSDPSVALLQQAQGQWVQVGRTEVVRSSLHPVFSKVFTVDYYFEEVQRLRFEVYDTHGPSGFSCQEDDFLGGMECTLGQPAQKWLLQVVMRVSVDVLGPAGHCAKHFLCCTESSHLARTGPSFLLRYDDLCLPWATAGAVRWWTCRGGHTQGWQIVAQKKVTRPLLLKFGRNAGKSTITVIAEDISGNNGYVELSFRARKLDDKDLFSKSDPFLELYRVNDDQGLQLVYRTEVVKNNLNPVWEAFKVSLSSLCSCEETRPLKCLVWDYDSRGKHDFIGEFSTTFEEMQKAFEEGQAQWDCVNPKYKQKRRSYKNSGVVVLADLKFHRVYSFLDYIMGGCQIHFTVAIDFTASNGDPRNSCSLHYINPYQPNEYLKALVSVGEICQDYDSDKRFSALGFGARIPPKYEVSHDFAINFNPEDDECEGIQGVVEAYQNCLPRVQLYGPTNVAPIISKVARVAAAEESTGKASQYYILLILTDGVVTDMADTREAIVRASRLPMSIIIVGVGNADFTDMQVLDGDDGVLRSPRGEPALRDIVQFVPFRELKNASPAALAKCVLAEVPKQVVEYYSHRGLPPRSLGVPAGEASPGCTP
B1 was tested, and the “cell viability (optical microscope)” value [1] was “higher”, the “accumulation of DNA damage (γ-H2A.X intensity)” value (hDPCs [2]) was “significantly reduced” and the “amount of reactive oxygen species (DCFDA)” value (hDPCs [3]) was “decreased and became significant at approximately one hour”. The “mRNA of endogenous antioxidant enzymes Sod1, 2, and catalase” value ([4]; after 30 minutes, compared to H2O2-only-treated group) was “significantly increased”, the “mRNA of Sod1 and Gpx7, and Hmox1 and Txrnd1” value ([4]; after one hour) was “significantly increased” and the “B-gal positive hDPC cells” value (hDPCs [5]) was “significantly reduced”.
